Source: PMC7700444

Substrate: O=C(O)C(=O)O
Assay: purified protein
Settings: 0.5 mM CoA, 5 mM ATP, 10 mM MgCl2, 2 mM DTT, 0.1 M Tris-HCl or NaPO4 pH 8.0, sodium oxalate as substrate

B1: GsAAE3 (Glycine max) (protein)
chain: MKDTMETPTTLTTLLRHVAAKFPSRRAISVAAKFDLTHSRLHRLVESAAAQLVSAGVKPGDVVALTFPNTIEFVVMFLAVIRARATAAPLNSAYTAEEFEFYLSDSESKLLLTSPEGNKPAQAAASKLSIPHATASITKAENEEAELSLSLLNHPELNSVNSVESLVNDPDDVALFLHTSGTTSRPKGVPLTQYNLLSSVKNIDSVYRLTESDSTVIVLPLFHVHGLIAGLLSSLGAGAAVALPAAGRFSASAFWKDMIKYSATWYTAVPTIHQIILDRHSSNPEPVYPRLRFIRSCSASLAPVILGKLEEAFGAPVLEAYAMTEASHLMASNPLPQDGAHKSGSVGKPVGQEMGILDESGRVQEAGISGEVCIRGSNVTKGYKNNVAANTASFLFDWFHTGDIGYFDSDGYLHLVGRIKELINRGGEKISPIEVDAVLLSHPEIAQAVAFGVPDAKYGEEIYCAVIPREGSNVDEAEVLRFSKTNLASFKVPKKVFITDSLPKTATGKILRRLVAEHFVSQI
  Km: 105.10 ± 12.30 µM
